Laboratory results from patent publication US20250147051A1, “METHOD FOR DETECTING A TAU PROTEIN IN A SALIVA SAMPLE” (GTINVENT LIMITED, priority 2022, published 2025).

Key:
dGAE = dGAE (Homo sapiens, UniProt P10636); assay: Biacore X100 SPR binding kinetics of anti-tau scAbs (scAb captured via HuCk), analyte dGAE; conditions: lead scAbs
Procedure: (§1) Surface plasmon resonance (SPR) is widely regarded as the gold standard for real time measurement of protein-protein interactions such as antibody binding. All SPR experiments were carried out using a Biacore X100 machine and HBS EP+ running buffer (GE Healthcare). A ‘capture’ method was followed for affinity measurements, where an anti-human constant kappa chain (HuCk) antibody was conjugated to the surface of a CM5 sensor chip using an amine coupling kit and scAb molecules were immobilised via their HuCk domain. Amine coupling is a very common approach for immobilising the ligand to the chip surface. The chip surface has a dextran matrix derivatised with carboxyl groups, which after activation with N-hydroxysuccinimide (NHS) and 1-ethyl-3-(3-dimethylaminopropyl) carbodiimide (EDC), form reactive succinimide esters which allows the covalent capturing of the ligand via any available primary amine groups (e.g. Lysine) on the ligand (in this case anti-HuCk antibody). The capture antibody was diluted 1/100 in 10 mM Sodium acetate buffer pH 5.0 and passed over the activated chip surface for a period of at least 420 s. Final ligand immobilisation levels over 12,000 RU were deemed to be satisfactory.
Following immobilisation, the level of each scAb to be captured was identified using the standard SPR equation with a theoretical RMax of 100 RU. Analyte MW refers to the molecular weight of hT40 or dGA/dGAE molecules, while ligand MW refers to the molecular weight of the scAbs tested. RLis the desired capture level and S refers to the stoichiometric ratio:
The scAb to be tested was added only to flow cell 2 so that flow cell 1 could act as a control to subtract any interaction with the analyte and the chip surface. Both single and multi-cycle runs were utilised using wizards developed in the Biacore X100 control software which are both accepted methods of kinetic analysis (Karlsson, R., et al. Analyzing a kinetic titration series using affinity biosensors (2006) Analytical Biochemistry 349:136-47). The multi-cycle protocol was as follows-Three start-up cycles composed of an initial capture, to the desired level, of the scAb to be tested was performed followed by a 30 s injection of glycine buffer pH 2.0 after each cycle to regenerate the chip surface. The regeneration step removed any captured scAb whilst leaving the capture antibody intact and able to repeat the capture for the next cycle. […]
(§2) The single cycle kinetics protocol was similar and utilised the same level of scAb capture. […] Binding responses were analysed in Biacore X100 evaluation software and data fitted to a 1:1 binding model to obtain kinetic and affinity characterisation.

hT40 = hT40 (Homo sapiens, UniProt P10636); assay: Biacore X100 SPR binding kinetics of anti-tau scAbs (scAb captured via HuCk), analyte hT40; conditions: lead scAbs, Table 23
Chain of hT40 (P10636 1-441 isoform P10636-8): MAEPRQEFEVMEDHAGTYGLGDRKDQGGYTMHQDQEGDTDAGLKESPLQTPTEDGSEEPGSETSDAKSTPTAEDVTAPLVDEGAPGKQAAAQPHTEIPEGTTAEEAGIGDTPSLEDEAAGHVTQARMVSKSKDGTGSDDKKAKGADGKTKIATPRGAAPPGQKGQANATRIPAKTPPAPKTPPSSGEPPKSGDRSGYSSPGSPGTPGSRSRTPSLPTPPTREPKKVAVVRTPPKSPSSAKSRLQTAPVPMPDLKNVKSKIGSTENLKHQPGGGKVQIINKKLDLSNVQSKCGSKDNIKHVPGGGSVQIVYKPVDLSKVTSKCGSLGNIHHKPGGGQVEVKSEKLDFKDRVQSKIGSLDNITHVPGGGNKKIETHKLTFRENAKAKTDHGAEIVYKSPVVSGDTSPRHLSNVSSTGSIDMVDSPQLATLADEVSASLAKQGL
Procedure: as §1, with “The chip surface has a dextran matrix derivatised with carboxyl groups, which after activation with N-hydroxysuccinimide (NHS) and 1-ethyl-3-(3-dimethylaminopropyl) carbodiimide (EDC), form reactive succinimide esters which allows the covalent capturing of the ligand via any available primary amine groups (e.g. Lysine) on the ligand (in this case anti-HuCk antibody).” left out
Following immobilisation, the level of each scAb to be captured was identified using the standard SPR equation with a theoretical RMax of 100 RU. Analyte MW refers to the molecular weight of hT40 or dGA/dGAE molecules, while ligand MW refers to the molecular weight of the scAbs tested. […]
as §2

Chain of dGAE (P10636 614-708): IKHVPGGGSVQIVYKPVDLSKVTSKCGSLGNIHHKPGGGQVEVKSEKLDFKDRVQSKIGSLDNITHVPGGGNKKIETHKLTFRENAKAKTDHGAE

B1: E2E8: anti-tau clone, SEQ ID NO: 248 (protein)
scFv: QVQLQESGPSLVKPSQTLSLTCTVSGFSLTDRGVAWVRQAPGKALEWVGTMRSGGTIDYNPALKSRLSITRDTSKSQVFLSLSSVTTEDMAMYYCARGYLSGDRYAWGRGLLVTVSSEGKSSGASGESKVDDQAVLTQPSSVSKSLGQSVSIACSGSRSDIGYGNYVSWFQQIPGSAPKLLIYDTNTRASGVPDRFSGARSGNTATLTINSLQAEDEADYYCANIDSSRSHLFGSGTRLTVLG
modifications: E2E8 amino acid sequence
- ka (dGAE; Table 24): 477000 M⁻¹ s⁻¹
- dissociation rate constant (koff) (dGAE; Table 24, dissociation rate): 0.0001915 s⁻¹
- T441 binding (result in words) (hT40): No T441 binding
